Measurements as given in patent US20250026839A1 (OSE IMMUNOTHERAPEUTICS, published 2025).

B1: Soluble Clec1-human IgG Fc chimera (Fc-Clec-1) (Fc fusion)
chain: DKTHTCPPCPAPPVAGGPSVFLFPPKPKDTLMISRTPEVTCVVVDVSHEDPEVKFNWYVDGVEVHNAKTKPREEQYNSTYRVVSVLTVLHQDWLNGKEYKCKVSNKGLPSSIEKTISKAKGQPREPQVYTLPPSRDELTKNQVSLTCLVKGFYPSDIAVEWESNGQPENNYKTTPPVLDSDGSFFLYSKLTVDKSRWQQGNVFSCSVMHEALHNHYTQKSLSLSPGKQYYQLSNTGQDTISQMEERLGNTSQELQSLQVQNIKLAGSLQHVAEKLCRELYNKAGAHRCSPCTEQWKWHGDNCYQFYKDSKSWEDCKYFCLSENSTMLKINKQEDLEFAASQSYSEFFYSYWTGLLRPDSGKAWLWMDGTPFTSELFHIIIDVTSPRSRDCVAILNGMIFSKDCKELKRCVCERRAGMVKPESLHVPPETLGEGD
modifications: biotinylated in the ELISA experiments (sites not given)
notes: domain: Fc; also called Fc-CLEC-1A; Fc-CLEC1A
B2: His-CLEC1 (Biotechne #1704-CL) (receptor)
chain: QYYQLSNTGQDTISQMEERLGNTSQELQSLQVQNIKLAGSLQHVAEKLCRELYNKAGAHRCSPCTEQWKWHGDNCYQFYKDSKSWEDCKYFCLSENSTMLKINKQEDLEFAASQSYSEFFYSYWTGLLRPDSGKAWLWMDGTPFTSELFHIIIDVTSPRSRDCVAILNGMIFSKDCKELKRCVCERRAGMVKPESLHVPPETLGEGD
modifications: biotinylated in the ELISA experiments (sites not given)
notes: Bought recombinant protein produced in NS0 cells; also called His-CLEC1A; His-CLEC-1A; not shown: His tag
B3: Fc only (human IgG1-E3 Fc control) (other, UniProt P01857-1 104-330, looked up)
chain: DKTHTCPPCPAPPVAGGPSVFLFPPKPKDTLMISRTPEVTCVVVDVSHEDPEVKFNWYVDGVEVHNAKTKPREEQYNSTYRVVSVLTVLHQDWLNGKEYKCKVSNKGLPSSIEKTISKAKGQPREPQVYTLPPSRDELTKNQVSLTCLVKGFYPSDIAVEWESNGQPENNYKTTPPVLDSDGSFFLYSKLTVDKSRWQQGNVFSCSVMHEALHNHYTQKSLSLSPGK
modifications: biotinylated in the ELISA (sites not given)
notes: domain: Fc; also called Fc alone; Fc-biot control

Tests used:
[1] = target: Recombinant human TRIM21 protein, TRIM21-his (Sinobiological #18010-H07B) (human) (UniProt P19474); assay: antagonist assay of FIG. 6A against a control antibody; format not stated; competitor CLEC-1
[2] = target: Recombinant human TRIM21 protein, TRIM21-his (Sinobiological #18010-H07B) (human) (UniProt P19474); assay: competition ELISA, TRIM21-his coated, antibody in excess (20 µg/ml), competitor biotinylated Fc-CLEC1 in dose response
[3] = target: T1, Recombinant human TRIM21 protein, TRIM21-his (Sinobiological #18010-H07B) (human, UniProt P19474 1-475); assay: ELISA, TRIM21-his coated, biotinylated Fc-CLEC1 in dose response, streptavidin-peroxidase
T1 construct: Bought, produced in baculovirus; coated on ELISA plates or immobilised on a CM5 chip; not shown: his tag
From the text: (§1) Plate was saturated with superblock buffer (#37515, Thermofisher).

[4] = target: T1, Recombinant human TRIM21 protein, …; assay: ELISA, TRIM21-his coated, biotinylated His-CLEC1 in dose response, streptavidin-peroxidase
[5] = target: T1, Recombinant human TRIM21 protein, …; assay: ELISA, TRIM21-his coated, biotinylated Fc in dose response (FIG. 4A)
From the text: as §1

[6] = target: T2, endogenous TRIM21 from whole cell extracts (RAJI, MoDC, HPB-ALL cells) (human, UniProt P19474 1-475); assay: co-immunoprecipitation from RAJI whole cell extract, anti-TRIM21 Western blot (FIG. 3A); supernatant not depleted of TRIM21 (FIG. 3B)
T2 construct: Endogenous cellular protein of human cell lines and monocyte derived dendritic cells, not a recombinant construct; also called TRIM21 E3 Ubiquitin-protein Ligase; cellular endogenous TRIM-21
From the text: FIG. 3: Co-immunoprecipitation of TRIM21 with CLEC-1A.
The experiment was repeated using Monocyte derived Dendritic Cells (MoDC) protein extracts as starting endogenous protein mix.

Sequence of Recombinant human TRIM21 protein, TRIM21-his (Sinobiological #18010-H07B) (human) (P19474 whole entry): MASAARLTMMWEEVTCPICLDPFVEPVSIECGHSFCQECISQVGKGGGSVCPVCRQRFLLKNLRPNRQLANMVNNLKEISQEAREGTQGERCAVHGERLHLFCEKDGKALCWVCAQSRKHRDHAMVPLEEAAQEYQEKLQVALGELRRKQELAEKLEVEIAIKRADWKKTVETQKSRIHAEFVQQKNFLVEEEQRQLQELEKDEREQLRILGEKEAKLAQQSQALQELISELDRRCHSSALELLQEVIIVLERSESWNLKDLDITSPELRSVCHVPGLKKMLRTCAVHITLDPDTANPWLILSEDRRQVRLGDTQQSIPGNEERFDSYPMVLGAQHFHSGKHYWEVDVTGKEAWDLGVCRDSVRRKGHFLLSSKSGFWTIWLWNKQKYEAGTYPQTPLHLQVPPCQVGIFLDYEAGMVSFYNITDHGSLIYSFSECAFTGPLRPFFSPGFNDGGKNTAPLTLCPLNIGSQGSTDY
T1 sequence (P19474 whole entry): as above
T2 sequence (P19474 whole entry): as above

Row | Molecule | percent decrease of the Fc-CLEC1/TRIM21 interaction [2] | other results
1 | anti-TRIM21 antibody Fisher PA5-22295 | – | percent reduction of the binding between CLEC-1 and TRIM21 [1]: 65%
2 | anti-TRIM21 antibody MAB6219 (Biotechne) | 50% | –
3 | anti-TRIM21 antibody MAB62191 (Biotechne) | 50% | –
4 | anti-TRIM21 antibody PA5-18147 (Fisher) | 50% | –
5 | anti-TRIM21 antibody PA5-22294 (Fisher / Invitrogen) | 50% | –
6 | anti-TRIM21 antibody sc-25351 (Santacruz) | 50% | –
7 | B1 | – | EC50 [3]: 15 µg/mL
8 | B2 | – | EC50 [4]: 13 µg/mL
9 | B3 | – | binding result [5]: no binding (tested: 30 µg/ml); binding result [6]: no binding
